According to patent US20190300590A1 (PROTAGONIST THERAPEUTICS, published 2019):
Like-named read-outs stand apart in the source and are kept apart here. *1 amine or outer side, *2 acyl side, *3 side chain or, on linkers, in order; H or OH if unused. Bridges are numbered along the chain shown (N, C = ends). [ ]: non-standard residue; d: D form. Phe(4-OMe) = 4-methoxy-L-phenylalanine (O-methyl-L-tyrosine), COc1ccc(C[C@H](N[*:1])C(=O)[*:2])cc1; Phe(3,4-(OMe)2) = COc1ccc(C[C@H](N)C(=O)O)cc1OC; 2Nal = N[C@@H](Cc1ccc2ccccc2c1)C(=O)O; AEF = NCCOc1ccc(C[C@H](N)C(=O)O)cc1; Cit = NC(=O)NCCC[C@H](N)C(=O)O; αMeL = CC(C)C[C@](C)(N)C(=O)O; αMeK = C[C@](N)(CCCCN)C(=O)O; αMeV = CC(C)[C@](C)(N)C(=O)O; Thp = NC1(C(=O)O)CCOCC1; Abu = CC[C@H](N)C(=O)O; βAla = NCCC(=O)O

T1: IL-23R on DB cells (human, UniProt Q5VWK5 24-629)
T1 sequence (looked up): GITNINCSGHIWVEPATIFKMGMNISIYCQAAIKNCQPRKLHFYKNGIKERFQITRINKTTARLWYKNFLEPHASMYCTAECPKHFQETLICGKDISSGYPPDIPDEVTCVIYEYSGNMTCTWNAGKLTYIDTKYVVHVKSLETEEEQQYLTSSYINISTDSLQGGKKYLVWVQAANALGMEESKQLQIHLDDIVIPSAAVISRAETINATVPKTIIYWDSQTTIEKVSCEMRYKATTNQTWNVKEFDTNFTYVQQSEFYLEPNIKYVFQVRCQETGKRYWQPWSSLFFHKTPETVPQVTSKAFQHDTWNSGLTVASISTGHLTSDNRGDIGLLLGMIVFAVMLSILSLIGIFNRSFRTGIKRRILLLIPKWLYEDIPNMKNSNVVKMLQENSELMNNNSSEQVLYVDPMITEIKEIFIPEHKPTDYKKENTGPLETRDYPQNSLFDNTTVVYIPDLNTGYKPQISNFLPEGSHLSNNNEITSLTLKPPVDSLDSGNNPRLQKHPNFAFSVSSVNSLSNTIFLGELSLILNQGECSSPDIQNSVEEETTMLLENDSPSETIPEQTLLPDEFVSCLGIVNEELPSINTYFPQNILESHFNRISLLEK

T2: IL-23R on human cells (IL-23R-expressing DB cells; human NK cells) (human, UniProt Q5VWK5 24-629)
T2 sequence (looked up): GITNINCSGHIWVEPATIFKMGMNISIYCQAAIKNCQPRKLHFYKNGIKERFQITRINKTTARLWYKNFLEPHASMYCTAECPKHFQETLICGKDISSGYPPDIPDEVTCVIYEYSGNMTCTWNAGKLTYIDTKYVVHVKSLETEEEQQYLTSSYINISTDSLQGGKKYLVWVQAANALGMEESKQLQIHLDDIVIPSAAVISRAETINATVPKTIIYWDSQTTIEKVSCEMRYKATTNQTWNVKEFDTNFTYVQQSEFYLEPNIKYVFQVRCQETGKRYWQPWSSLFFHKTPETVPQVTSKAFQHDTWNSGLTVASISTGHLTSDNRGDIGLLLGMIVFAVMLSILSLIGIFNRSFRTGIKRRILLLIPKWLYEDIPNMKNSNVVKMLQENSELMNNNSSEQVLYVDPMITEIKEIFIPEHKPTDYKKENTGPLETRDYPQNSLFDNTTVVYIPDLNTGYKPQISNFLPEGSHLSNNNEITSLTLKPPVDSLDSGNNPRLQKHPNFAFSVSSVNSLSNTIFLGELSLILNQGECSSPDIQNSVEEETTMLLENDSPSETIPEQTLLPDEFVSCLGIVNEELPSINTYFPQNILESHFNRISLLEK

T3: IL23R_huFC (human, UniProt Q5VWK5 24-353)
T3 sequence (looked up): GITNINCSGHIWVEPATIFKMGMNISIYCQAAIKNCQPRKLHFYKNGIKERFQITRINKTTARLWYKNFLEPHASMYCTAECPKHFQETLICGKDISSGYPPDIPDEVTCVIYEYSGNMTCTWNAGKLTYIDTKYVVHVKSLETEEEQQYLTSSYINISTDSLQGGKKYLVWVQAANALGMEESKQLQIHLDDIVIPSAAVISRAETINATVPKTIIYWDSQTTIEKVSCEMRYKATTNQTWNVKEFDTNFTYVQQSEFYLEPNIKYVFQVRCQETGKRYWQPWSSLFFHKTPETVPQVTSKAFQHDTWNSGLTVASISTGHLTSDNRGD

T4: Rat IL-23R_huFC (rat, UniProt F1LX96 39-369)
T4 sequence: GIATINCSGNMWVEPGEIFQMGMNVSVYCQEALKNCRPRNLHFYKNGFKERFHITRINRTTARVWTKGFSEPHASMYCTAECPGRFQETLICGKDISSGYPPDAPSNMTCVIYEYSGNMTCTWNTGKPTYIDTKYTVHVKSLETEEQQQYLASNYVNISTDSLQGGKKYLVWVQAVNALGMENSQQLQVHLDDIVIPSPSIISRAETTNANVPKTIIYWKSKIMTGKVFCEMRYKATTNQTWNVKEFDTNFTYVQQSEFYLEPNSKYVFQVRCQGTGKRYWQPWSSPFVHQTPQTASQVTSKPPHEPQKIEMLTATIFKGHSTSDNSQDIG


Experiments:
IL-23R on DB cells = molecular target: T1, IL-23R on DB cells; assay: cell-based or functional assay
[1] = molecular target: T2, IL-23R on human cells …; assay: cell-based or functional assay
[2] = molecular target: T2, IL-23R on human cells …; assay: cell-based or functional assay; remark: listed apart in the source
Rat IL-23R_huFC [3] = molecular target: Rat IL-23R_huFC (rat); assay: rat ELISA vs IL-23
IL23R_huFC [4] = molecular target: T3, IL23R_huFC; assay: human ELISA vs IL-23
Rat IL-23R_huFC [5] = molecular target: Rat IL-23R_huFC (rat); assay: rat ELISA vs IL-23; remark: listed apart in the source
Rat IL-23R_huFC [6] = molecular target: Rat IL-23R_huFC (rat); assay: rat ELISA vs IL-23; remark: listed apart in the source
IL23R_huFC [7] = molecular target: T3, IL23R_huFC; assay: human ELISA vs IL-23; remark: listed apart in the source
Rat IL-23R_huFC [8] = molecular target: T4, Rat IL-23R_huFC; assay: rat IL-23R competitive binding ELISA

Binder	pStat3 HTRF IC50 (IL-23R on DB cells) [nM]	NK cell assay IC50 (IFNγ) [1] [nM]	pStat3 HTRF IC50 [2] [nM]	IC50 (Rat IL-23R_huFC [5]) [nM]	IC50 (IL23R_huFC [7]) [nM]	also measured
XNTWQXFXXKNN (Ac; Pen-Pen disulfide; Phe(4-OMe); 2-Nal; Achc; NH2; DIG linker joins the two subunits) [[Ac-[Pen]-NTWQ-[Pen]-[Phe(4-OMe)]-[2-Nal]-[Achc]-KNN-NH2]2DIG]	< 10	–	–	–	–	–
XNTWQXFXXKNN (Ac; Pen-Pen disulfide; Phe(4-CONH2); 2-Nal; Aib; NH2; DIG linker joins the two subunits) [[Ac-[Pen]-NTWQ-[Pen]-[Phe(4-CONH2)]-[2-Nal]-[Aib]-KNN-NH2]2DIG]	< 10	–	–	–	–	–
XNTWQXFXXKNN (Ac; Pen-Pen disulfide; Phe(4-OMe); 2-Nal; 4-amino-4-carboxy-tetrahydropyran; NH2; DIG linker joins the two subunits) [[Ac-[Pen]-NTWQ-[Pen]-[Phe(4-OMe)]-[2-Nal]-[4-amino-4-carboxy-tetrahydropyran]-KNN-NH2]2DIG]	< 10	–	–	–	–	–
Ac-[Abu]QTWQC[AEF][2Nal][αMeL]QN[βAla]-NH2 (thioether 1-6) [Ac-Cyclo-[[Abu]-QTWQC]-[Phe[4-(2-aminoethoxy)]]-[2-Nal]-[α-MeLeu]-QN-[βAla]-NH2]	–	< 25	< 10	–	–	–
XNTWQXFXXKNN (Ac; Pen-Pen disulfide; Phe(4-CONH2); 2-Nal; Acvc; NH2; DIG linker joins the two subunits) [[Ac-[Pen]-NTWQ-[Pen]-[Phe(4-CONH2)]-[2-Nal]-[Acvc]-KNN-NH2]2DIG]	< 10	–	–	–	–	–
Ac-[Abu]QTWQC[AEF][Phe(3,4-(OMe)2)][αMeK]K(Ac)NG-NH2 (thioether 1-6) [Ac-Cyclo-[[Abu]-QTWQC]-[Phe[4-(2-aminoethoxy)]]-[Phe(3,4-OMe2]-[α-MeLys]-[Lys(Ac)]-NG-NH2]	–	< 25	< 10	–	–	IC50 (Rat IL-23R_huFC [3]): 25 to 100 nM; IC50 (IL23R_huFC [4]): 10 to 25 nM
Ac-[dF][Abu]QTWQC[AEF][2Nal][αMeK]ENN-NH2 (thioether 2-7) [Ac-[(D)Phe]-Cyclo-[[Abu]-QTWQC]-[Phe[4-(2-aminoethoxy)]]-[2-Nal]-[α-MeLys]-ENN-NH2]	–	< 25	–	< 10	–	–
Ac-[Abu]QTWQC[Phe(4-OMe)][2Nal][αMeK]ENG-NH2 (thioether 1-6) [Ac-Cyclo-[[Abu]-QTWQC]-[Phe(4-OMe)]-[2-Nal]-[α-MeLys]-ENG-NH2]	–	< 25	< 10	–	–	IC50 (Rat IL-23R_huFC [6]): 10 to 25 nM; IC50 (IL23R_huFC [4]): 10 to 25 nM
Ac-[Abu]QTWQC[AEF][2Nal][αMeV]K(Ac)NG-NH2 (thioether 1-6) [Ac-Cyclo-[[Abu]-QTWQC]-[Phe[4-(2-aminoethoxy)]]-[2-Nal]-α-MeVal]-[Lys(Ac)]-NG-NH2]	–	< 25	< 10	< 10	< 10	–
Ac-[Abu]QTWQC[AEF][2Nal][αMeK]ENN-NH2 (thioether 1-6) [Ac-Cyclo-[[Abu]-QTWQC]-[Phe[4-(2-aminoethoxy)]]-[2-Nal]-[α-MeLys]-ENN-NH2]	–	< 25	< 10	< 10	< 10	–
Ac-[Abu]QTWQC[AEF][2Nal][αMeK]ENQ-NH2 (thioether 1-6) [Ac-Cyclo-[[Abu]-QTWQC]-[Phe[4-(2-aminoethoxy)]]-[2-Nal]-[α-MeLys]-ENQ-NH2]	–	< 25	< 10	< 10	< 10	–
Ac-CRTWQCYWSEFGTGE-NH2 (disulfide 1-6; SMILES CC(=O)N[C@H]1CSSC[C@@H](C(=O)N[C@@H](Cc2ccc(O)cc2)C(=O)N[C@@H](Cc2c[nH]c3ccccc23)C(=O)N[C@@H](CO)C(=O)N[C@@H](CCC(=O)O)C(=O)N[C@@H](Cc2ccccc2)C(=O)NCC(=O)N[C@H](C(=O)NCC(=O)N[C@@H](CCC(=O)O)C(N)=O)[C@@H](C)O)NC(=O)[C@H](CCC(N)=O)NC(=O)[C@H](Cc2c[nH]c3ccccc23)NC(=O)[C@H]([C@@H](C)O)NC(=O)[C@H](CCCNC(=N)N)NC1=O) [Ac-CRTWQCYWSEFGTGE-NH2]	–	–	–	–	–	IC50 (Rat IL-23R_huFC [8]): 778 nM
XNTWQXFXXKNN (Ac; Pen-Pen disulfide; Phe(4-OMe); 2-Nal; Aib; NH2; DIG linker joins the two subunits) [[Ac-[Pen]-NTWQ-[Pen]-[Phe(4-OMe)]-[2-Nal]-[Aib]-KNN-NH2]2DIG]	< 10	–	–	–	–	–
XNTWQXFXXKNN (Ac; Pen-Pen disulfide; Phe(4-CONH2); 2-Nal; Achc; NH2; DIG linker joins the two subunits) [[Ac-[Pen]-NTWQ-[Pen]-[Phe(4-CONH2)]-[2-Nal]-[Achc]-KNN-NH2]2DIG]	< 10	–	–	–	–	–
Ac-[Abu]QTWQC[AEF][2Nal][αMeL][Cit]NN-NH2 (thioether 1-6) [Ac-Cyclo-[[Abu]-QTWQC]-[Phe[4-(2-aminoethoxy)]]-[2-Nal]-[α-MeLeu)-[Cit]-NN-NH2]	–	< 25	< 10	< 10	< 10	–
Ac-[Abu]QTWQC[AEF][2Nal][Thp]ENN-NH2 (thioether 1-6) [Ac-Cyclo-[[Abu]-QTWQC]-[Phe[4-(2-aminoethoxy)]]-[2-Nal]-[4-amino-4-carboxy-tetrahydropyran]-ENN-NH2]	–	< 25	< 10	< 10	< 10	–
